From article doi:10.1101/827477

Molecular target: BG505_mut123_N241 SOSIP (HIV-1 (subtype A, BG505)) (UniProt Q2N0S6)
Test: negative-stain EM

B1: 13B Fab (Fab, V domains shown)
VH: LEESGGGLVQPEGSLTLTCKASGFDFSDYHVQWVRQSPGKGLEFIGGIAYTGNIYYASWAKGRFTISKTSSTTVTLQMTTLTAADTATYFCARAYGYASAPYAQYFNLWGPGTLVTVSS
VL: DIVMTQTPASVSEPVGGTVTINCQASQSRGNNYLSWYQQKPGQSPSLLIYRTSTLASGVPSRFKGSGSGTQFTLTISDLECADAATYYCLYGYYSSRNPDFAFGGGTEVVVK
  percent of particles with no Fab bound: 57%
  percent of particles with one Fab bound: 43%
